Assay results published in patent US20230112123A1.
pEC50: −log10 of the molar value.

Assays:
human CD70 (human) [1] = target: human CD70 (human) (UniProt P32970); test: FACS binding; U266 cells
human CD70 (human) [2] = target: human CD70 (human) (UniProt P32970); test: FACS binding; Raji cells
human CD70 (human) [3] = target: human CD70 (human) (UniProt P32970); test: FACS binding; CHO-CD70 cells

Sequence of human CD70 (human) (P32970 whole entry): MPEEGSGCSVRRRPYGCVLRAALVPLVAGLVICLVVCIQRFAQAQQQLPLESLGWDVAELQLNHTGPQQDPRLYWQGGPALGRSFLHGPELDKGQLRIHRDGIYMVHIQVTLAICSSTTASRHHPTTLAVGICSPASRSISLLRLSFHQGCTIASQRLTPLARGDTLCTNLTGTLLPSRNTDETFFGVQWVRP

Substance | pEC50 (human CD70 (human) [1]) | pEC50 (human CD70 (human) [2]) | EC50 (human CD70 (human) [1]) [µg/mL] | EC50 (human CD70 (human) [3]) [µg/mL]
Cusatuzumab | 9.17 | 8.66 | – | –
IMM40C | – | – | 0.0715 | 0.501
